Data taken from patent US20230213525A1, “DETECTING MICROBIAL INFECTION IN WOUNDS” (QUALIZYME DIAGNOSTICS GMBH & CO KG, priority 2016, published 2023).

Molecular target: T1, Elastase (Homo sapiens, UniProt P08246)
T1 sequence (P08246 30-267): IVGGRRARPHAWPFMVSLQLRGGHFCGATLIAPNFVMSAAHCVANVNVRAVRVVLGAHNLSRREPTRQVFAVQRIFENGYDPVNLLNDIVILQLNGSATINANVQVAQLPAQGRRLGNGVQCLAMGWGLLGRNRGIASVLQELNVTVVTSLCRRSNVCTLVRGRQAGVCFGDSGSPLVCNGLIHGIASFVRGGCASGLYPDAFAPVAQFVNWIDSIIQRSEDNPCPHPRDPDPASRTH
Experiment: Reaction of Trx-Ela-Sub 1-RBB with Elastase
Format: biochemical
Conditions: incubated with and without Elastase containing buffer; FIG. 10
Description: The stained and purified peptide construct was applied on a cellulose surface and dried at 37° C. for 2 h. Unbound Trx-Ela-Sub 1-RBB was removed with H20. The stripes with the applied Elastase substrate were incubated with and without Elastase containing buffer, respectively.

B1: Trx-Ela-Sub 1-RBB: purified Trx-Ela-Sub1 fusion protein stained with vinyl sulfone dye remazol brilliant blue R (conjugate)
chain: MSDKIIHLTDDSFDTDVLKADGAILVDFWAEWCGPCKMIAPILDEIADEYQGKLTVAKLNIDQNPGTAPKYGIRGIPTLLLFKNGEVAATKVGALSKGQLKEFLDALAGSGSGHMHHHHHHSSGLVPRGSGMKETAAAKFERQHMDSPDLGTDDDDKAMGGSCGGGGSAAPVGGGGSAAPVGGGGSPPGGNRGTTTTRRPATTTGSSPGPTQSHYGQCGGIGYSGPTVCASGTTCQVLNPYYSQCLLEHHHHHH
B1 was tested, and the “dye release from cellulose stripes” value was “Elastase responsive dye release”.
